Consider five proteins from PMC10348774.

Data set [1] can be described thus: flow cytometry of membrane ADAM10. The settings on record: glycan lost; control: control SK-BR-3. For orientation: A flow cytometer gives signals particle by particle.
Data set [2] is described as follows: IB of endogenous pre- and matADAM10. To be noted: glycan lost; control: untreated / vector SK-BR-3.
Data set [3] in a line: IB of precursor and mature forms. To be noted: glycan lost; control: wild type (implied).
Data set [4] is described as follows: IB after Eer I or MG132 rescue. The settings on record: glycan lost; control: untreated SK-BR-3.
A short description of data set [5]: IB and IF with ER marker Calnexin. To be noted: glycan lost; control: wild type (implied).

B1: ADAM metallopeptidase domain 10 (ADAM10): tunicamycin (protein)
parent chain: MVLLRVLILLLSWAAGMGGQYGNPLNKYIRHYEGLSYNVDSLHQKHQRAKRAVSHEDQFLRLDFHAHGRHFNLRMKRDTSLFSDEFKVETSNKVLDYDTSHIYTGHIYGEEGSFSHGSVIDGRFEGFIQTRGGTFYVEPAERYIKDRTLPFHSVIYHEDDINYPHKYGPQGGCADHSVFERMRKYQMTGVEEVTQIPQEEHAANGPELLRKKRTTSAEKNTCQLYIQTDHLFFKYYGTREAVIAQISSHVKAIDTIYQTTDFSGIRNISFMVKRIRINTTADEKDPTNPFRFPNIGVEKFLELNSEQNHDDYCLAYVFTDRDFDDGVLGLAWVGAPSGSSGGICEKSKLYSDGKKKSLNTGIITVQNYGSHVPPKVSHITFAHEVGHNFGSPHDSGTECTPGESKNLGQKENGNYIMYARATSGDKLNNNKFSLCSIRNISQVLEKKRNNCFVESGQPICGNGMVEQGEECDCGYSDQCKDECCFDANQPEGRKCKLKPGKQCSPSQGPCCTAQCAFKSKSEKCRDDSDCAREGICNGFTALCPASDPKPNFTDCNRHTQVCINGQCAGSICEKYGLEECTCASSDGKDDKELCHVCCMKKMDPSTCASTGSVQWSRHFSGRTITLQPGSPCNDFRGYCDVFMRCRLVDADGPLARLKKAIFSPELYENIAEWIVAHWWAVLLMGIALIMLMAGFIKICSVHTPSSNPKLPPPKPLPGTLKRRRPPQPIQQPQRQRPRESYQMGHMRR
Consider B1, for which the localisation_or_trafficking result in data set [1] is “decreases”. The expression_or_secretion result in data set [2] is “decreases”.

B2: ADAM metallopeptidase domain 10 (ADAM10): N267Q (protein)
parent chain: MVLLRVLILLLSWAAGMGGQYGNPLNKYIRHYEGLSYNVDSLHQKHQRAKRAVSHEDQFLRLDFHAHGRHFNLRMKRDTSLFSDEFKVETSNKVLDYDTSHIYTGHIYGEEGSFSHGSVIDGRFEGFIQTRGGTFYVEPAERYIKDRTLPFHSVIYHEDDINYPHKYGPQGGCADHSVFERMRKYQMTGVEEVTQIPQEEHAANGPELLRKKRTTSAEKNTCQLYIQTDHLFFKYYGTREAVIAQISSHVKAIDTIYQTTDFSGIRNISFMVKRIRINTTADEKDPTNPFRFPNIGVEKFLELNSEQNHDDYCLAYVFTDRDFDDGVLGLAWVGAPSGSSGGICEKSKLYSDGKKKSLNTGIITVQNYGSHVPPKVSHITFAHEVGHNFGSPHDSGTECTPGESKNLGQKENGNYIMYARATSGDKLNNNKFSLCSIRNISQVLEKKRNNCFVESGQPICGNGMVEQGEECDCGYSDQCKDECCFDANQPEGRKCKLKPGKQCSPSQGPCCTAQCAFKSKSEKCRDDSDCAREGICNGFTALCPASDPKPNFTDCNRHTQVCINGQCAGSICEKYGLEECTCASSDGKDDKELCHVCCMKKMDPSTCASTGSVQWSRHFSGRTITLQPGSPCNDFRGYCDVFMRCRLVDADGPLARLKKAIFSPELYENIAEWIVAHWWAVLLMGIALIMLMAGFIKICSVHTPSSNPKLPPPKPLPGTLKRRRPPQPIQQPQRQRPRESYQMGHMRR
For B2, in data set [3], the “other: proteolytic processing” value is reported as “no change”.

B3: ADAM metallopeptidase domain 10 (ADAM10): DPAGT1 inhibition/knockdown + Eer I or MG132 (protein)
parent chain: MVLLRVLILLLSWAAGMGGQYGNPLNKYIRHYEGLSYNVDSLHQKHQRAKRAVSHEDQFLRLDFHAHGRHFNLRMKRDTSLFSDEFKVETSNKVLDYDTSHIYTGHIYGEEGSFSHGSVIDGRFEGFIQTRGGTFYVEPAERYIKDRTLPFHSVIYHEDDINYPHKYGPQGGCADHSVFERMRKYQMTGVEEVTQIPQEEHAANGPELLRKKRTTSAEKNTCQLYIQTDHLFFKYYGTREAVIAQISSHVKAIDTIYQTTDFSGIRNISFMVKRIRINTTADEKDPTNPFRFPNIGVEKFLELNSEQNHDDYCLAYVFTDRDFDDGVLGLAWVGAPSGSSGGICEKSKLYSDGKKKSLNTGIITVQNYGSHVPPKVSHITFAHEVGHNFGSPHDSGTECTPGESKNLGQKENGNYIMYARATSGDKLNNNKFSLCSIRNISQVLEKKRNNCFVESGQPICGNGMVEQGEECDCGYSDQCKDECCFDANQPEGRKCKLKPGKQCSPSQGPCCTAQCAFKSKSEKCRDDSDCAREGICNGFTALCPASDPKPNFTDCNRHTQVCINGQCAGSICEKYGLEECTCASSDGKDDKELCHVCCMKKMDPSTCASTGSVQWSRHFSGRTITLQPGSPCNDFRGYCDVFMRCRLVDADGPLARLKKAIFSPELYENIAEWIVAHWWAVLLMGIALIMLMAGFIKICSVHTPSSNPKLPPPKPLPGTLKRRRPPQPIQQPQRQRPRESYQMGHMRR
For B3, the “other: proteolytic processing” value in data set [4] is “abolishes”.

B4: ADAM metallopeptidase domain 10 (ADAM10): DPAGT1 silencing (protein)
parent chain: MVLLRVLILLLSWAAGMGGQYGNPLNKYIRHYEGLSYNVDSLHQKHQRAKRAVSHEDQFLRLDFHAHGRHFNLRMKRDTSLFSDEFKVETSNKVLDYDTSHIYTGHIYGEEGSFSHGSVIDGRFEGFIQTRGGTFYVEPAERYIKDRTLPFHSVIYHEDDINYPHKYGPQGGCADHSVFERMRKYQMTGVEEVTQIPQEEHAANGPELLRKKRTTSAEKNTCQLYIQTDHLFFKYYGTREAVIAQISSHVKAIDTIYQTTDFSGIRNISFMVKRIRINTTADEKDPTNPFRFPNIGVEKFLELNSEQNHDDYCLAYVFTDRDFDDGVLGLAWVGAPSGSSGGICEKSKLYSDGKKKSLNTGIITVQNYGSHVPPKVSHITFAHEVGHNFGSPHDSGTECTPGESKNLGQKENGNYIMYARATSGDKLNNNKFSLCSIRNISQVLEKKRNNCFVESGQPICGNGMVEQGEECDCGYSDQCKDECCFDANQPEGRKCKLKPGKQCSPSQGPCCTAQCAFKSKSEKCRDDSDCAREGICNGFTALCPASDPKPNFTDCNRHTQVCINGQCAGSICEKYGLEECTCASSDGKDDKELCHVCCMKKMDPSTCASTGSVQWSRHFSGRTITLQPGSPCNDFRGYCDVFMRCRLVDADGPLARLKKAIFSPELYENIAEWIVAHWWAVLLMGIALIMLMAGFIKICSVHTPSSNPKLPPPKPLPGTLKRRRPPQPIQQPQRQRPRESYQMGHMRR
With B4, the localisation_or_trafficking entry in data set [1] is given as “decreases”. In addition, in data set [2], the expression_or_secretion result is recorded as “decreases”.

B5: ADAM metallopeptidase domain 10 (ADAM10): N278Q (protein)
parent chain: MVLLRVLILLLSWAAGMGGQYGNPLNKYIRHYEGLSYNVDSLHQKHQRAKRAVSHEDQFLRLDFHAHGRHFNLRMKRDTSLFSDEFKVETSNKVLDYDTSHIYTGHIYGEEGSFSHGSVIDGRFEGFIQTRGGTFYVEPAERYIKDRTLPFHSVIYHEDDINYPHKYGPQGGCADHSVFERMRKYQMTGVEEVTQIPQEEHAANGPELLRKKRTTSAEKNTCQLYIQTDHLFFKYYGTREAVIAQISSHVKAIDTIYQTTDFSGIRNISFMVKRIRINTTADEKDPTNPFRFPNIGVEKFLELNSEQNHDDYCLAYVFTDRDFDDGVLGLAWVGAPSGSSGGICEKSKLYSDGKKKSLNTGIITVQNYGSHVPPKVSHITFAHEVGHNFGSPHDSGTECTPGESKNLGQKENGNYIMYARATSGDKLNNNKFSLCSIRNISQVLEKKRNNCFVESGQPICGNGMVEQGEECDCGYSDQCKDECCFDANQPEGRKCKLKPGKQCSPSQGPCCTAQCAFKSKSEKCRDDSDCAREGICNGFTALCPASDPKPNFTDCNRHTQVCINGQCAGSICEKYGLEECTCASSDGKDDKELCHVCCMKKMDPSTCASTGSVQWSRHFSGRTITLQPGSPCNDFRGYCDVFMRCRLVDADGPLARLKKAIFSPELYENIAEWIVAHWWAVLLMGIALIMLMAGFIKICSVHTPSSNPKLPPPKPLPGTLKRRRPPQPIQQPQRQRPRESYQMGHMRR
With B5, the localisation_or_trafficking result in data set [5] is “changes”.
